For assay [1], the target named is T1, PolyG-1620 peptide (S-atropisomer) (not fully specified (N-terminus); printed as GGC(1620)GGGGGG-Nle).
T1 construct: Control peptide, not of natural origin
T1 peptide: GGC(ARS‑1620 (S-atropisomer))GGGGGG[Nle]
Briefly: BLI, biotinylated peptide. In general terms: BLI is a label-free optical method that tracks binding on a fibre tip over time.

The target of assay [2] is T1, PolyG-1620 peptide (S-atropisomer). As to the kind of experiment: BLI; 'Affinity (nM)'.
The target of assay [3] is T2, AHR2-1620 peptide.
T2 construct: Origin printed as 'off target'
T2 peptide: VVVEPQQQLC(ARS‑1620 (S-atropisomer))QK
Briefly: BLI; 'Affinity (nM)'.

Non-standard residues stand in square brackets, D forms with d. No end group written: not given here. *: point of attachment. ARS‑1620 (S-atropisomer) = O=C(CC*)N1CCN(c2ncnc3c(F)c(-c4c(O)cccc4F)c(Cl)cc23)CC1; Nle = CCCC[C@H](N)C(=O)O

B1: P2F10 Fab (Fab, V domains shown)
VH: EVQLVESGGGVVQPGRSLRLSCAASGFTFSNYAMHWVRQAPGKGLEWVALISYDGSITYYADSVKGRFTISRDNSKDTLYLQMNSLRPEDTTLYYCARERVPYDYYGMAVWGQGTTVTVSS
VL: QSVLTQPPSVSAAPGQKVTISCSGSASNIGSNHVSWYQHVPGTAPQLLIYDDKQRPSGIPDRFSGSKSGTSAALAITGLQTGDEADYYCATWDNSLASAFFGGGTKLTVLS
notes: Fab from a human naive Fab-phage library
Usually Kd stands for the constant that tells how readily two partners part at equilibrium. Read a high Kd as lower affinity. Take B1: the Kd in assay [1] is 0.0141 µM.

B2: P1A4 Fab (Fab, V domains shown)
VH: QVQLQESGGGLVQPGRSLRLSCAASGFTFSSYAMHWVRQAPGKGLEWVAVISYDGSNKYYADSVKGRFTISRDNSKNTLYLQMNSLRAEDTAVYYCARDYDWQYFDYWGQGTLVTVSS
VL: QSVVTQPPSVSAAPGQEVTISCSGSSSNIGNNYVSWYQHLPGTAPKLLIYDSDKRPSGIPDRFSGSKSGTSATLGVTGLQTGDEADYYCGTWDSSLSAVMFGGGTKLTVLG
Take B2: the dissociation constant Kd worked out at 0.039 µM in assay [1], 0.04 µM in assay [2] and 0.051 µM in assay [3].

B3: P2G5 Fab (Fab, V domains shown)
VH: QVQLLESGGGVVQPGRSLRLSCAASGFTFSSYAMHWVRQAPGKGLEWLASISYDGSNKFHADSVKGRFTISRDNSKSTLYLQMNSLRAEDTAVYYCVRERVPWDYDGMDVWGQGTTVTVSS
VL: QSVVTQPPSVSAAPGQKVTVSCSGSNSNIGDNYVSWYQLLPGTAPKLLIYDNNKRPSGILDRFSGSKSGTSATLDITGLQTGDEADYYCGTWDSSLLTVVFGGGTKLTVLG
notes: Fab from a human naive Fab-phage library; also called P1C1; P1C1(P2G5)
In assay [1], B3 returned a Kd of 0.0854 µM.

B4: P2F11 Fab (Fab, V domains shown)
VH: DVQLVESGGGVVQPGRSLRLSCAASGFTFSNYAMHWVRQAPGKGLEWVALISYDGSNKFHADSVKGRFTISRDNSKSTLYLQMNSLRAEDTAVYYCVRERVPWDYDGMDVWGQGTTVTVSS
VL: QSVLTQPPSASGTPGQRVTISCSGGNSNIKSNTVSWYRQLPGATPKLLIYKTSQRPSGVPDRFSGSKSDTSATLDIAGLQTGDEADYYCGTWDNSLSSVVFGGGTRVTVLG
notes: as for B1
As for B4, in assay [1], binding was put at a Kd of 0.0217 µM.

B5: P1H6 Fab (Fab, V domains shown)
VH: QVQLVESGGGVVQPGRSLRLSCAASGFTFSSYAMHWVRQAPGKGLEWLASISYDGSNKFHADSVKGRFTISRDNSKSTLYLQMNSLRAEDTAVYYCVRERVPWDYDGMDVWGQGTTVTVSS
VL: QSVLTQPPSVSAAPGQKVTVSCSGSSSNIGNNYVSWYQLLPGTAPKLLIYDNNKRPSGILDRFSGSKSGTSATLDITGLQTGDEADYYCGTWDSSLINVVFGGGTKVTVLS
notes: as for B1
Consider B5, for which, in assay [1], the Kd turned out to be 0.0246 µM.

Source of the values: US20220289866A1 (University of California, published 2022).
